{
  "source": "patent US20030073818A1",
  "about": "(MEDICAL COLLEGE OF GEORGIA RESEARCH INSTITUTE, published 2003)",
  "binders": {"B1": {"name": "Calcyon:GAL4 AD fusion protein (encoded by pACTCalcyon) (other, not shown: large carriers)", "chain": "MVKLGCSFSGKPGKDPGDQDGAAMDSVPLISPLDISQLQPPLPDQVVIKTQTEYQLSSPDQQNFPDLEGQRLNCSHPEEGRRLPTARMIAFAMALLGCVLIMYKAIWYDQFTCPDGFLLRHKICTPLTLEMYYTEMDPERHRSILAAIGAYPLSRKHGTETPAAWGDGYRAAKEERKGPTQAGAAAAATEPPGKPSAKAEKEAARKAAGSAAPPPAQ", "notes": "Library clone from a human brain cDNA:GAL4 AD library; The 936 bp insert holds the whole 217 residue ORF; also called pACTP24; clone K37"}},
  "key": {"[1]": {"molecular_target": "B1", "test": "yeast two-hybrid"}, "[2]": {"molecular_target": "T1, D1/GAL4 BD fusion protein (hD1 receptor residues 365-446 fused to the GAL4 DNA binding domain, pGBTD1) (yeast; human, UniProt P04386 1-147; P21728 365-446)", "T1 construct": "D1 segment is at the 3' end of the GAL4 BD open reading frame; also called pGBTD1365-446; D1:GAL4 fusion protein", "test": "yeast two-hybrid, X-Gal colony filter assay", "text": "A nitrocellulose filter was placed on the plate to transfer the colonies to the filter. Cells were permeabilized by freezing in liquid nitrogen, and then soaked in buffer containing X-Gal."}, "[3]": {"molecular_target": "T1, D1/GAL4 BD fusion protein (hD1 receptor …)", "test": "yeast two-hybrid"}},
  "data": [
    {"binder": "D1 receptor:GAL4 binding domain fusion protein pGBTD1421-435 (other, yeast;human, UniProt P04386 1-147, looked up) MKLLSSIEQACDICRLKKLKCSKEKPKCAKCLKNNWECRYSPKTKRSPLTRAHLTEVESRLERLEQLFLLIFPREDLDMILKMDSLQDIKALLTGLFVQDNVNKDAVTDRLASVETDMPLTLRQHRISATSSSEESSNKGQRQLTVSSVILDYDTDVSLEKI", "values": [
      {"measurement": "binding result", "setting": "[1]", "value": "binds"}
    ]},
    {"binder": "GAL4 Activation Domain (AD) protein encoded on the vector pGAD424 (other, yeast, UniProt P04386 768-881, looked up) ANFNQSGNIADSSLSFTFTNSSNGPNLITTQTNSQALSQPIASSNVHDNFMNNEITASKIDDGNNSKPLSPGWTDQTAYNAFGITTGMFNTTTMDDVYNYLFDDEDTPPNPKKE", "values": [
      {"measurement": "binding result", "setting": "[2]", "value": "no binding"}
    ]},
    {"binder": "B1", "values": [
      {"measurement": "binding result", "setting": "[3]", "value": "binds"}
    ]}
  ]
}
